Experimental data: article PMC4141210 (FEBS Open Bio, 2014)

B1: GST–NS2 (natural protein)
chain: MDPNTVSSFQDILLRMSKMQLESSSGDLNGMITQFESLKLYRDSLGEAVMRMGDLHSLQNRNEKWREQLGQKFEEIRWLIEEVRHKLKITENSFEQITFMQALHLLLEVEQEIRTFSFQLI
B2: GST–Hsc70 N384 (1–384 aa) (domain or fragment)
chain: not shown
B3: His–M1 (influenza virus M1 protein, wild type) (natural protein)
chain: MSLLTEVETYVLSIIPSGPLKAEIAQRLEDVFAGKNTDLEVLMEWLKTRPILSPLTKGILGFVFTLTVPSERGLQRRRFVQNALNGNGDPNNMDKAVKLYRKLKREITFHGAKEISLSYSAGALASCMGLIYNRMGAVTTEVAFGLVCATCEQIADSQHRSHRQMVTTTNPLIRHENRMVLASTTAKAMEQMAGSSEQAAEAMEVASQARQMVQAMRTIGTHPSSSAGLKNDLLENLQAYQKRMGVQMQRFK
B4: GST–Hsc70 N402 (1–402 aa) (domain or fragment)
chain: not shown

How the values were obtained:
[1] = molecular target: B3; assay: pull-down
[2] = molecular target: B3; assay: far-Western, overlay or dot blot
[3] = molecular target: GST–Hsc70 wild-type (1–646 aa) (UniProt P11142 1-646); assay: pull-down
GST–Hsc70 wild-type (1–646 aa), sequence (P11142 whole entry, the tested form may be a part): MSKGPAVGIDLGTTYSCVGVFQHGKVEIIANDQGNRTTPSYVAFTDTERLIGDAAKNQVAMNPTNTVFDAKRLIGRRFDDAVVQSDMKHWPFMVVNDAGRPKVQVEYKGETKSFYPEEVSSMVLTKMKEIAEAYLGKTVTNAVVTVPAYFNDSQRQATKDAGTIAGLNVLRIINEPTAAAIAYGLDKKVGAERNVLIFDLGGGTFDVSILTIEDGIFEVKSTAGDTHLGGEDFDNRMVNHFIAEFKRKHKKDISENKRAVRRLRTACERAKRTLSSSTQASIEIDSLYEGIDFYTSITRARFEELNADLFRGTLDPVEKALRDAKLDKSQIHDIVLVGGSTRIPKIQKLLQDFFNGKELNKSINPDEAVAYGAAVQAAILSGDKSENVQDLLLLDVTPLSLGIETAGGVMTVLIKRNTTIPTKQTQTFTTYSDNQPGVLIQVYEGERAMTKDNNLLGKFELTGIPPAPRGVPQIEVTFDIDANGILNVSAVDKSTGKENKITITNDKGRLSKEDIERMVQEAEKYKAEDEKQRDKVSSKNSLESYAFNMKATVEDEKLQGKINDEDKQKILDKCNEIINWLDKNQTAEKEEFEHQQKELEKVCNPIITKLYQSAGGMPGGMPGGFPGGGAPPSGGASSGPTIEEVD

Binder | relative band intensity [2] | further results
B1 | – | Kd [1]: 6 µM
B2 | 0.26 relative (wild type = 1) | –
B3 | – | Kd [3]: 0.1 µM
B4 | 0.71 relative (wild type = 1) | –
